The assay concerns the target Bluetongue virus serotype 10 outer capsid protein VP2, unmodified full-length (Bluetongue virus serotype 10 (BTV-10)). Briefly: SDS-PAGE of non-denatured samples with western blot.

“Bluetongue virus serotype 10 outer capsid protein VP2, unmodified full-length (natural protein)” gave a stoichiometry N of 3.

A word on the stoichiometry N: it is a count of units in the complex or per binding partner.

The record behind these values is article PMC1783847.
